B1: Succinate--CoA ligase [ADP-forming] subunit beta, mitochondrial (Homo sapiens), Q9P2R7 (parent)
chain: MAASMFYGRLVAVATLRNHRPRTAQRAAAQVLGSSGLFNNHGLQVQQQQQRNLSLHEYMSMELLQEAGVSVPKGYVAKSPDEAYAIAKKLGSKDVVIKAQVLAGGRGKGTFESGLKGGVKIVFSPEEAKAVSSQMIGKKLFTKQTGEKGRICNQVLVCERKYPRREYYFAITMERSFQGPVLIGSSHGGVNIEDVAAESPEAIIKEPIDIEEGIKKEQALQLAQKMGFPPNIVESAAENMVKLYSLFLKYDATMIEINPMVEDSDGAVLCMDAKINFDSNSAYRQKKIFDLQDWTQEDERDKDAAKANLNYIGLDGNIGCLVNGAGLAMATMDIIKLHGGTPANFLDVGGGATVHQVTEAFKLITSDKKVLAILVNIFGGIMRCDVIAQGIVMAVKDLEIKIPVVVRLQGTRVDDAKALIADSGLKILACDDLDEAARMVVKLSEIVTLAKQAHVDVKFQLPI
B2: Very-long-chain enoyl-CoA reductase (Homo sapiens), Q9NZ01 (parent)
chain: MKHYEVEILDAKTREKLCFLDKVEPHATIAEIKNLFTKTHPQWYPARQSLRLDPKGKSLKDEDVLQKLPVGTTATLYFRDLGAQISWVTVFLTEYAGPLFIYLLFYFRVPFIYGHKYDFTSSRHTVVHLACICHSFHYIKRLLETLFVHRFSHGTMPLRNIFKNCTYYWGFAAWMAYYINHPLYTPPTYGAQQVKLALAIFVICQLGNFSIHMALRDLRPAGSKTRKIPYPTKNPFTWLFLLVSCPNYTYEVGSWIGFAIMTQCLPVALFSLVGFTQMTIWAKGKHRSYLKEFRDYPPLRMPIIPFLL
partner: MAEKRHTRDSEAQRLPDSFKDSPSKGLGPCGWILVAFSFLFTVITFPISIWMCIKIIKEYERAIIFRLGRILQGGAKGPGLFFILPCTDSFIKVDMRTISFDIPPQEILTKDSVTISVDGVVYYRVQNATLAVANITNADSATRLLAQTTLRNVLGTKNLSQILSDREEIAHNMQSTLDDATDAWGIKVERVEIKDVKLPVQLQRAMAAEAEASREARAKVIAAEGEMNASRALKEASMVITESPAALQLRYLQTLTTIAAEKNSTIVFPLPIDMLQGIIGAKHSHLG
B3: Catenin alpha-3 (Homo sapiens), Q9UI47-2 (parent)
chain: MSAETPITLNIDPQDLQVQTFTVEKLLEPLIIQVTTLVNCPQNPSSRKKGRSKRASVLLASVEEATWNLLDKGEKIAQEATVLKDELTASLEEVRKESEALKVSAERFTDDPCFLPKREAVVQAARALLAAVTRLLILADMIDVMCLLQHVSAFQRTFESLKNVANKSDLQKTYQKLGKELENLDYLAFKRQQDLKSPNQRDEIAGARASLKENSPLLHSICSACLEHSDVASLKASKDTVCEEIQNALNVISNASQGIQNMTTPPEPQAATLGSALDELENLIVLNPLTVTEEEIRPSLEKRLEAIISGAALLADSSCTRDLHRERIIAECNAIRQALQDLLSEYMNNAGKKERSNTLNIALDNMCKKTRDLRRQLRKAIIDHVSDSFLDTTVPLLVLIEAAKNGREKEIKEYAAIFHEHTSRLVEVANLACSMSTNEDGIKIVKIAANHLETLCPQIINAALALAARPKSQAVKNTMEMYKRTWENHIHVLTEAVDDITSIDDFLAVSGMFLFF
partner: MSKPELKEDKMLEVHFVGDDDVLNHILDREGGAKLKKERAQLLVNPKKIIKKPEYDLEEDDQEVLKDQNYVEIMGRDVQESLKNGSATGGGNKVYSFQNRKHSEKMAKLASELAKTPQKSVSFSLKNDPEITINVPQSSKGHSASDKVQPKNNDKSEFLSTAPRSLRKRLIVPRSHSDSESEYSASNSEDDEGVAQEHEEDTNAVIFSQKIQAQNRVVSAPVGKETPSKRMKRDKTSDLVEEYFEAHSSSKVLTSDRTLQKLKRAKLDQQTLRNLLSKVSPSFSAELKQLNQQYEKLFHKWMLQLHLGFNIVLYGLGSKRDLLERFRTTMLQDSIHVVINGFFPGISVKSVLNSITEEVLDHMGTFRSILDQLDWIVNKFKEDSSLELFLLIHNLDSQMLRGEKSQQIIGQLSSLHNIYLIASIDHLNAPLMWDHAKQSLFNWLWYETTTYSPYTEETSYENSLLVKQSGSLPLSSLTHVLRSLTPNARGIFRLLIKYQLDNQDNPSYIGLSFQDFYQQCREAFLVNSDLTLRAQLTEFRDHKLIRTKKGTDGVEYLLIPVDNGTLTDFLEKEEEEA
B4: Very-long-chain enoyl-CoA reductase (Homo sapiens), Q9NZ01 (parent)
chain: B2 chain
partner: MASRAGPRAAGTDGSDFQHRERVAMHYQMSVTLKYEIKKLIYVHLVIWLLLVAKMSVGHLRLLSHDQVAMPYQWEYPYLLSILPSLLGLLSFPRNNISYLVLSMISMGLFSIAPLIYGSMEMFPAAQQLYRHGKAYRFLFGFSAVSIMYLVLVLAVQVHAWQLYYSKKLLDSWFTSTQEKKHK
B5: Catenin alpha-3 (Homo sapiens), Q9UI47-2 (parent)
chain: B3 chain
partner: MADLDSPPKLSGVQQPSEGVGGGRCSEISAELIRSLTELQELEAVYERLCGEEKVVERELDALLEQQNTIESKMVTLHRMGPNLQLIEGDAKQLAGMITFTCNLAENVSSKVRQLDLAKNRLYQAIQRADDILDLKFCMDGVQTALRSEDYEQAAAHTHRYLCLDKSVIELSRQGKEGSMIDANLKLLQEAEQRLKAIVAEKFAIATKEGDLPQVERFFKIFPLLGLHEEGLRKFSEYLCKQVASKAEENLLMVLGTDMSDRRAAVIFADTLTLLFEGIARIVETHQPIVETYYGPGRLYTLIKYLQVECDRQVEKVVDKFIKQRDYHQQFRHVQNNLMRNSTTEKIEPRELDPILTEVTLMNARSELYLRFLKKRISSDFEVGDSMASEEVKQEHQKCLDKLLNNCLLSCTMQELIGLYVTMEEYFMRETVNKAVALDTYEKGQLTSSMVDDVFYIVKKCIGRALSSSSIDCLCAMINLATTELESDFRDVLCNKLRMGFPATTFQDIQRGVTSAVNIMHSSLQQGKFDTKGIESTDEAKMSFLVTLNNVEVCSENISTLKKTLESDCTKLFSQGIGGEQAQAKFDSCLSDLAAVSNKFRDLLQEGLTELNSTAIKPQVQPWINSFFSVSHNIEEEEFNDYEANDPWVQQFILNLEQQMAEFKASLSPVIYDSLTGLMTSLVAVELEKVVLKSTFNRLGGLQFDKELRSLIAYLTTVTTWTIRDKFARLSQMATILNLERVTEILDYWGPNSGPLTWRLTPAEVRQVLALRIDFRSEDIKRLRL
B6: Catenin alpha-3 (Homo sapiens), Q9UI47-2 (parent)
chain: B3 chain
partner: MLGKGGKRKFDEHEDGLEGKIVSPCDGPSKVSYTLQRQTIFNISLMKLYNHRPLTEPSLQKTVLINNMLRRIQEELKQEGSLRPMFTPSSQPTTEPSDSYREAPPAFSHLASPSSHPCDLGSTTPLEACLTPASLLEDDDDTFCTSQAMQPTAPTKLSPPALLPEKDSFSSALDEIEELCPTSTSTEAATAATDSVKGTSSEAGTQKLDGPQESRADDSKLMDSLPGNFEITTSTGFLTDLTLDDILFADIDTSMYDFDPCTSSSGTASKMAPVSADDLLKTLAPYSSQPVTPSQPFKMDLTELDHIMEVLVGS

Variants of B1 are the subject of the first assay. The note with it: with sc23a_human SEC23A.
As for D251N, the “effect of a mutation on the interaction” value is reported as “disrupting interaction strength”.

Take G118R: the “effect of a mutation on the interaction” value was “disrupting interaction strength”.

In a further assay the parent is B1. The note with it: with mal2_human MAL2, Q969L2.
Sequence of mal2_human MAL2, Q969L2 (Q969L2 whole entry): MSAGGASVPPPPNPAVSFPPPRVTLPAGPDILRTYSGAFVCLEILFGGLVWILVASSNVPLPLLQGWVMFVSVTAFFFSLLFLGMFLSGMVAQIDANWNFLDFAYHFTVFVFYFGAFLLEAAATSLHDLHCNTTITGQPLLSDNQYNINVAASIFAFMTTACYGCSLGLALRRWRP
D251N: the “effect of a mutation on the interaction” value is “disrupting interaction strength”.

Take G118R: the “effect of a mutation on the interaction” value is “disrupting interaction strength”.

The variants in another assay derive from B1. The note with it: with ar6p1_human ARL6IP1, Q15041.
Sequence of ar6p1_human ARL6IP1, Q15041 (Q15041 whole entry): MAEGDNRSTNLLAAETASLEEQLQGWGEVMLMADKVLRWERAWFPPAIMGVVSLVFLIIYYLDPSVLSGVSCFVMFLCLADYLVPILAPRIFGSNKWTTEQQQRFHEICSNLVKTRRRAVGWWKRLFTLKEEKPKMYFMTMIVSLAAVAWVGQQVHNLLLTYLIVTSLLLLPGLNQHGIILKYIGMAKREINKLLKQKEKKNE
With D251N, the “effect of a mutation on the interaction” value is reported as “disrupting interaction strength”.

Consider G118R, for which the “effect of a mutation on the interaction” value is reported as “disrupting interaction strength”.

In another assay the parent is B2. Conditions: with stom_human STOM.
For the variant P182L, the “effect of a mutation on the interaction” value is “disrupting interaction strength”.

The next assay covers variants of B3. Conditions: with orc2_human ORC2, Q13416.
Turning to V94D, the “effect of a mutation on the interaction” value is given as “disrupting interaction strength”.

Another assay covers variants of B4. Conditions: with jagn1_human JAGN1, Q8N5M9.
On to P182L, for which the “effect of a mutation on the interaction” value is reported as “with no effect”.

Variants of B5 are the subject of another assay. The note with it: with cog4_human COG4, Q9H9E3.
As to V94D, the “effect of a mutation on the interaction” value is recorded as “with no effect”.

Variants of B6 are the subject of a further assay. Conditions: with srtd2_human SERTAD2, Q14140.
As for V94D, the “effect of a mutation on the interaction” value was “disrupting interaction strength”.

Values taken from IntAct's records for PubMed 32296183.
